Source: the supplement of paper PMC12764529

Experiment: folding stability dG unfold (combined trypsin and chymotrypsin); higher = more stable
Description: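 Folding stability of de novo designed mini-proteins (<80 aa, no Cys; designed by TrROS, TrMRF, ProteinMPNN and the joint model) was measured by cDNA display proteolysis with trypsin and chymotrypsin. Each protease was used at 11 concentrations in a threefold dilution series plus a no-protease condition. K50 was inferred by Bayesian fitting of sequencing counts, and dG unfold was derived against a sequence-predicted unfolded-state K50 (Tsuboyama et al. method). Sequences shown include variable-length N-terminal GS-type padding (SAGGSAGG...) inside a display construct carrying a PA tag. Rows were kept only if the AF2 dimer inter-PAE was >15, to exclude likely homo-oligomers.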

Row | Sequence | folding stability dG unfold [kcal/mol]
1 | SAGGSPVLVPLEREETDPARGTRTRTRAYRLPERDIALVEREEIPFAPDGTPLRRTSEEVVSLEELLESAGG [r13_807_JUSTAS] | < -1
2 | SADWYYWKNPKDGKEHTVDPEELSPEFAKKGIEPEEPVPPVINIDVDSAEQADELADEFPNKVQVQPNGSAG [r14_638_TrROS] | < -1
3 | SAGGSAGGSAGGSVVPPGAKVKVTLEGEEKVVEADSLSEIGEIKIGDKWVKVKKIEVEGSAGGSAGGSAGGS [r4_214_TrMRF] | < -1
4 | SAGGSAGGSAGGPKIEIPMVHLHPNGTITVMRMKMEYDPNGKFEIKKMEMHTVPADDIKDSAGGSAGGSAGG [r7_521_TrROS] | < -1
5 | SAGGSAGGSAGGGVRIKVEYPNNGQPHEFPIDENWTAESIKDKLEDRGLPPNHKITKIEPSAGGSAGGSAGG [r7_70_TrROS] | < -1
6 | SAGGSAGGSAGMLYRALVPHPDGSFSTALSEDARELERELLEATGIPPENIKIEPIPLETSAGGSAGGSAGG [r17_169_TrMRF] | < -1
7 | SAGGSAGGSAGKTIMIRDPEALKKLPENQKIRIPDGKPFKIKKVEYVEENGWHRFTIKPESAGGSAGGSAGG [r11_316_TrROS] | < -1
8 | SAGGSAGGSALLPLPEDAVLEVPFPGTEEEAEVFAAELAKAFPVGEITLEKEPTSYRLVVRSAGGSAGGSAG [r3_73_TrMRF] | < -1
9 | SAGGSWIEKLPPDYTILLEKPDGTPFTRKIPANASEEEVLALNPPGSSKIELVSLDPSGRAVWRTPGSAGGS [r16_103_JUSTAS] | < -1
10 | SAGGMSIRELLKEKGIPIKVENEPTDGRPRMKITIQDNDKPVKIDMPMDDPERMIRDAAKELGLKPISAGGS [r8_226_TrROS] | < -1
11 | SVRPDEPVRITVRFPARPVTRYRARPTGPFLGAEPVPVPSATLTLTVPAADLEAVLDALRPLGVEVEVDPSA [r9_167_TrMRF] | < -1
12 | SAGGSAGGSAGGMELPNLVPVETVPVGDSTVRLYELPGKPLRVTVTENGDNVTVELEEPPSAGGSAGGSAGG [r7_940_JUSTAS] | < -1
13 | SAGGSAGGSAGGSGSMEPQVVLRVTDTRGGNPTVTIYSPDVPLPPSPTTTVEPRPVSLESAGGSAGGSAGGS [r4_107_JUSTAS] | < -1
14 | SAGGSAGGSASMKIAKEVRTDPNSDVTYRVEVYRLPGPNVLLVETTYPEGVELSLVEVDPPSAGGSAGGSAG [r3_123_JUSTAS] | < -1
15 | SAGGSAGGSAGGQPITLPDANNGFKEVEIMPTPKKWRITAENPETGQKKEFPIEDPEAVSAGGSAGGSAGGS [r10_772_TrROS] | < -1
16 | SAGGSAGGSGKKYMIDSPEAMNDMRDAGIPPKKIEPEPYPIPANDNPGFKDMPWPMTMYRVKVSAGGSAGGS [r12_78_TrROS] | < -1
17 | SAGGSAGGSSEKEEKIRNIIKENFPENVIKKVEFNNDIVKIYGIPEYVKKAKEKLGSKNFIENSAGGSAGGS [r12_748_TrMRF] | < -1
18 | SAGGSAGGSAINLADIHEVEVEEIPEDPTAVYRVRARLPEPGVPVDFLLVRFPDGSVRFYGSAGGSAGGSAG [r3_234_TrMRF] | < -1
19 | SAGGMEEIAEKLPVTKIETLEVDPEPPVVKVKLTLKDESGTEKEIELTIELPPEPLPVPKFPPERILLSAGG [r13_608_JUSTAS] | < -1
20 | VSPEEKEKLEKLAAEPKPIKRTLEITTVKSEGPVELYVFTKKYFVPGKGEEVGEEVVVVPPEEVEELLAELS [r1_415_JUSTAS] | < -1
21 | SAGMVLAPSTTETRLPGLRVRTETVVTTELAPDGRPTDVVAPTTTVTVTPPAPPPVFTEESVAAAFELESAG [r14_442_JUSTAS] | < -1
22 | MKIVIDKDGNIRIEIIDKDGKKITLTLPVKTLEEALQKIKDLIRELFPDAKDLKVKVVEVKDGYVVIEVEPS [r1_389_TrROS_Hall] | > 6
23 | SASDEDQKKQQEQQKPPIKPPEFPVKLNGKKIEKIRFNPPTDRIWFEWPNGKEIPIDPGMSLEEILKKISAG [r14_59_TrROS] | < -1
24 | SAGGSAGGSAGGSVKTPEGVEVAPDEPVEERVEHPPVARPVKVTLYALPNSNEYSEEIASAGGSAGGSAGGS [r4_13_JUSTAS] | < -1
25 | SAGGSAGGSAGPKWKTINFPIDLKPGQSAKEIAKKFAEANPDMEIDGFNPERGWASITVPSAGGSAGGSAGG [r11_465_TrROS] | < -1
26 | SAGGPPKIKITDIRPNKGHMRYKIKDPNKEVEIHMHGNSMHIEYPDGKEKTFDGPGSFEDAAKRIIEKSAGG [r13_98_TrROS] | < -1
27 | SAGGSAGGSTVPQSLPDSTATISSGPGGTWTVTFYPDEGSRTLTLPRSVVDASPVPLTELVSSSAGGSAGGS [r20_90_JUSTAS] | < -1
28 | SAGGSAGGSAGGMTVKEIAEKLGLPPGLKVEDIPLDPPNGYFEIEITHDDGPHTYRIPISAGGSAGGSAGGS [r10_17_TrROS] | < -1
29 | SAGGSAGGSAGGRGVLLVFRLDGEVRPTPDGEPVLELTDLEVEEREVTVTRDADGVLHAGSAGGSAGGSAGG [r11_381_TrMRF] | < -1
